Holding throughout (conditions): N = 1 experiment
Experiment [1] addresses CV993_521_GS.
The target of experiment [2] is CV503_664_GS.
Experiment [3] deals with CV503_993_EL.
The target in experiment [4] is CV664_993_GS.

For “full-length SARS-CoV-2 spike D614G, expressed on the cell surface (from UniProt P0DTC2) Alpha (B.1.1.7)”, the percent of parent in experiment [1] was 222 % of D614G; in experiment [2], 236 % of D614G; in experiment [3], 214 % of D614G; in experiment [4] it was 257 % of D614G.

Take “full-length SARS-CoV-2 spike D614G, expressed on the cell surface (from UniProt P0DTC2) Beta (B.1.351)”: the results for the percent of parent in experiment [2] and in experiment [3] were 202 % of D614G and 170 % of D614G, respectively.

The values above are taken from article PMC8651051.
